# Test results taken from paper PMC12578633.
# B1: 326-366.26 (IgG1) (antibody, V domains shown)
# VH: QMQLQESGPGLVKPSGTLSLTCAVSGGSISNSHWWSWVRQSPGKGLEWIGEIYHSGSTYYNPSLKSRLTISVDKSKNQFSLKLTSVTAADTAVYFCARGLGWEQGGYRAFDMWGQGTTVTVSS
# VL: EIVMTQSPATLSVSPGERVTLSCRASQSVGSSLAWYQQKPGQAPRLLIYAASTRATGIPARFSGSGSGTEFTLTISSLQSEDFAVYYCQQHYNWPPLTFGGGTKVEIK
# B2: 326-289.74 (IgG1) (antibody, V domains shown)
# VH: QVQLVQSGAEVKKPGSSVKVSCKASGGTFSIYTFTWVRQAPGHGLEWMGGILPISGSAKYAQKFLGRVTITADESTSTVYMELSSLRSEDTAIYYCARDPYSNYFYGLDVWGQGTTVTVSS
# VL: EIVLTQSPVTLSLSPGERATLSCRASQSVSRFLAWYQQKPGQAPRLLFYDASTRATGIPARFSGTGSGTDFTLTISGLEPEDFAVYYCQQRSNWPPEYSFGQGTKLEIK
# Tests used:
# [1] = biological target: H5 A/Indonesia/05/2005 HA ectodomain (influenza A virus H5N1 A/Indonesia/05/2005)
# [2] = biological target: H5 A/Victoria/149/2024 HA ectodomain (influenza A virus H5N1 A/Victoria/149/2024)
# [3] = biological target: H5 A/Cambodia/2302009/2023 HA ectodomain (influenza A virus H5N1 A/Cambodia/2302009/2023)
# [4] = biological target: H5 A/Sichuan/26221/2014 HA ectodomain (influenza A virus H5N6 A/Sichuan/26221/2014)
Binder,"neutralization IC80, R4ΔPB1 reporter virus H5N1 A/Indonesia/05/2005 [1] [µg/mL]","neutralization IC80, R4ΔPB1 reporter virus H5N1 A/Victoria/149/2024 [2] [µg/mL]","neutralization IC80, R4ΔPB1 reporter virus H5N1 A/Cambodia/2302009/2023 [3] [µg/mL]","neutralization IC80, R4ΔPB1 reporter virus H5N6 A/Sichuan/26221/2014 [4] [µg/mL]"
B1,0.009,0.193,> 25,0.008
B2,0.014,0.335,0.133,0.006
